Reference: the nanobody polyreactivity screen of Harvey et al. (2022)

Assay: yeast display, Sf9 membrane polyspecificity reagent, FACS + sequencing; frameworks hold sequencing errors
Summary of the method: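 A synthetic nanobody library was expressed on Saccharomyces cerevisiae BJ5465 by galactose induction for 36–48 hours. The library was stained for 1 hour at 4 °C with 10% biotinylated, detergent-solubilized Sf9 membrane reagent and enriched with streptavidin microbeads before FACS. Low and high (top ~1%) gates were set on anti-HA fluorescence for expression and streptavidin fluorescence for reagent binding, and each polyreactivity label reflects the gate of origin.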

Row | Sequence | polyreactivity (PSR sort gate)
1 | QVQLVESGGGLVQAGGSLRLSCAASGITFDKYAMGWNRQAPGKERELDAAISGSDGSTYYADSVKGRFTISRDNAKNTVYLQMNILKPEDTAVYYCAAESEYAGTYEYDYWGQGTQVTVSS | low polyreactivity
2 | QVQLVESGGGLVQAGGSLRLSCAASGITFDQNAMGWYRQAPGKEREFVAAISVSGGRTYYADSVKGRFTISRDNAKNTVYLQMNSLKPEDTAVYYCAAYGGTRYYYSYYYWGQGTQVTVSS | high polyreactivity
3 | QVQLVESGGGLVQAGGSLRLSCAASGITFDRNVMGWYRQAPGTERELVAAISKSGGRTYYADSVKGRFRISRDNAKNTDYLQLNSLKPEDTAVYYCNADVYSRKSLHQYEYWGQGTQVTVSS | high polyreactivity
4 | QVQLVESGGGLVQAGGSLRLSCAASGITFDWNAMGWYRQAPGKEREFVASISRGSGGTYYADSVKGRFTISRDNAKNTVYLQMNSLKPEDTAVYYCAAAVGNTDREYDYWGQGTQVTVSS | low polyreactivity
5 | QVQLVESGGGLVQAGGSLRLSCAASGITFDYNAMGWYRPAPGKERELVASITTNDDSTYYADSVKGRFTISRDNAKNTVYLQINSLKPEDTAVYSCNADQITGQFDYWGQGTQVTVSS | low polyreactivity
6 | QVQLVESGGGLVQAGGSLRLSCAASGITFDYNAMGWYRQAPGKERELVASINSGGNTNYADSVKGRFTISRDNAKNTVYLQMNSLKPEDTAVYYCATVSYYLYTRYDYWGQGTQVTVSS | low polyreactivity
7 | QVQLVESGGGLVQAGGSLRLSCAASGITFDYYAMGWYRQAPGKERELVASISSDSSTYYADSVKGRFTISRDNAKNTVYLQMNSLKPEDTAVYYCNAGDSEYTYYGYYAFDYWGQGSQVTVSS | low polyreactivity
8 | QVQLVESGGGLVQAGGSLRLSCAASGITFDYYAMGWYRQEPGKERELVAAISSAGRTYYADSVKGRFTISRDNAKNTVYLQMNSLKPEDTAVYYCAATAFSYYPYHGDYWGQGTQVTVSS | high polyreactivity
9 | QVQLVESGGGLVQAGGSLRLSCAASGITFDYYDMGWYRTAPGKERELVAAISSDGSTYYADSVKGRFTISRDNAKNTVYLQMNSLKPEDTAVYYCNAVAIEPYFYVVYDIFDYWGQGTQVTVSS | low polyreactivity
10 | QVQLVESGGGLVQAGGSLRLSCAASGITFEGYAMGWYRQAPGKERELVAAIRSSGTSTYYADSVKGRFTISRDNAMNTVYLQMNSLKPEDYAVYYCNRARSSSRYDYWGQGTQGTVSS | low polyreactivity
11 | QVQLVESGGGLVQAGGSLRLSCAASGITFERYAMGWYRQAPGKERELVAAITYRGGSTYYADSVKGRFTISRDNAKNTVYLQMNSLKPEDTAVYYCNRARLRGAYIYWGQGTQVTVSS | high polyreactivity
12 | QVQLVESGGGLVQAGGSLRLSCAASGITFETYALGWSRQAPGKERELVASIDYDGTSTYYADSVKGRFTISRDNAKNTVYLQMNSLKPEDTAVYYCNARDLDNYGWDDEEYDYWGQGTQVSVSS | low polyreactivity
13 | QVQLVESGGGLVQAGGSLRLSCAASGITFEWYDMGWYRQAPGKEKDLVAAISQSGASTYYADSVKGRFTISRDNAKNTVYLQMNSLKPEETAVYYCATRARYVGGYKYNYWGQGTQVTVSS | high polyreactivity
14 | QVQLVESGGGLVQAGGSLRLSCAASGITFEYYAMGWYRPAPGKERELVAAIDTGGSTNYADSVKGRFTISRDNAKNTVYLQMNSLKPEDTAVYSCAADWSWWDGEDDHFEYDYWGQGTQVTVSS | low polyreactivity
15 | QVQLVESGGGLVQAGGSLRLSCAASGITFFAYTMGWYRQAHGKERELVASISSSGGSTNYADSVKGRFTISRDNAKNTVYLQMNSLKPEDTAVYYCAARQSLYRGGRWYDYWGQGTQVTVSS | high polyreactivity
16 | QVQLVESGGGLVQAGGSLRLSCAASGITFFHYAMGWYRQAPGKERELVATISWRAGSTYADSVKGRFTISRDNAKNTVYLQMNSLKPEDTAVYYCNAVWTYHSGSGGYLFDYWGQGTQVTVSS | low polyreactivity

Row | Sequence | polyreactivity (PSR sort gate)
17 | QVQLVESGGGLVQAGGSLRLSCAASGITFFPYAMGWYRQAPGKERELVASISDGGGTNYAASVKGRFTISRDNAKNTVYLQMNSLKPEDTAVYYCATDASTYAYYGGDYWGQGTQVTVSS | low polyreactivity
18 | QVQLVESGGGLVQAGGSLRLSCAASGITFFVYAMGWYRQAPGKERELVAAISSTASTNYADSVKGRFTISRDNAKYTVYLQMNSRKPEDTAVYYCNAGVWSLGTYWQFDYWGQGTQVTVSS | high polyreactivity
19 | QVQLVESGGGLVQAGGSLRLSCAASGITFFYYAMGWYRQAPGKERELVAAINWSGRTYYADSVKGRFTISRDNAKNTVYLQMNSLKPEDTAVSYCAAVTYGPGVSGMDYWGQGTQVTVSS | low polyreactivity
20 | QVQLVESGGGLVQAGGSLRLSCAASGITFFYYAMGWYRQAPGKERELVAAISTSGGRTYYADSVKGRFTISRDNAKNTVYLQMNSLKPEDTAVYYCAARSRVPPAGPRYDYWGQGTQVTVSS | high polyreactivity
21 | QVQLVESGGGLVQAGGSLRLSCAASGITFGANTMGWYRQAPGKERELVAAITISGGITHYADSVKGRFTISRDNAKNTVYLQMNSLKPEDTAVYYCAAGAYWRLYPYRQRNGGRMYYWGQGTQVTVSS | low polyreactivity
22 | QVQLVESGGGLVQAGGSLRLSCAASGITFGAYAMGWDRQAPGKERELVASISSSGSTYADSVKGRFTISRDNAKTTVYLQMNSLKPEDTAVYYCNAVGFQANDYNYWRQGTQVTVSS | low polyreactivity
23 | QVQLVESGGGLVQAGGSLRLSCAASGITFGAYTMGWYRQAPGKERELVAAISGSGGSTYYADSVKGRFTISRDNAKNTVYLQMNSLKPEDTAVTYCNKVLSPHLGCSFDYWGQGTEVTVSS | high polyreactivity
24 | QVQLVESGGGLVQAGGSLRLSCAASGITFGDYAMVWYRQAPGKERELVAAITSGGSTYYADSVKGRCTISRDNAKNTVYLQMNILKPEDTAVYYCNRQYNQWIHYYYRMDYWGQGTQVTVSS | high polyreactivity
25 | QVQLVESGGGLVQAGGSLRLSCAASGITFGDYAMVWYRQAPGKERELVAGINWSGDGTYYADSLKGRFTISRDKAKNTVYLQMNSLKPEDSAVYYCAAETFYDYGGYDYWGQGTQVTVSS | low polyreactivity
26 | QVQLVESGGGLVQAGGSLRLSCAASGITFGDYTMGWYRQAPGKERELVAVISSGGNTNYADSVKGRFTISRDNAKNTVYLQMNSLKPEDTAVYYCAAVIASYGTRYRGGYTRYYYWGQGTQVTVSS | high polyreactivity
27 | QVQLVESGGGLVQAGGSLRLSCAASGITFGHYAMGWYRQAPGKERQLVAGINWSGDGRYYADSVKGRFTISRDNAKNTVYLQMNSLKPEDTAVYYCDAETFYDYGGYDYWGQGTQVTVSS | low polyreactivity
28 | QVQLVESGGGLVQAGGSLRLSCAASGITFGHYTMGWYRQAPGKEWDLVAAISWSGGSTYYADSVKGRFTISRDNAKYTVYLQMNSLKPEDTAVYYCNRVKRVIASYDSDYWGQGTQVTVSS | low polyreactivity
29 | QVQLVESGGGLVQAGGSLRLSCAASGITFGIYAMGWYRQAPGKERELVAAIDGSDGSTYYADSVKGRFTISRDNAKNTVYLQMKSLKPEDTAVYYCNAENGYSWDVFSDYWGQGTQVTVSS | low polyreactivity
30 | QVQLVESGGGLVQAGGSLRLSCAASGITFGIYVMGWYRPAPGKEWELVATISRSDDNTYYADSVKGRFTISRDNAKNTVYLQMNSLKPEDTAVYYCAAYWYDLYWDYYTFDYWGQGTQVTVSS | low polyreactivity
31 | QVQLVESGGGLVQAGGSLRLSCAASGITFGKNAMGWYRQAPGKERELVATIRRSGGSTYADSVKGRFTISRDNAKNTVYLQMNSLKPEDTAVYYCNARSWNTYNYWGQGTQVTVSS | high polyreactivity
